Substitutions are numbered along the chain they refer to. Names may count otherwise.
B1: chMab2K52R (antibody, human IgG1, kappa, V domains shown)
VH: EVQLQESGGVLVKPGGSLKLSCAASGFVFSSYDMSWVRQTPEKRLEWVAYISSGGGITYFPDTVQGRFTVSRDNAKNTLYLQMNSLKSEDTAIYYCAAHYFGSSGPFAYWGQGTLVTVSA
VL: DIQMTQSPASLSASVGETVTITCRASENIFSYLAWYQQKQGKSPQLLVYNTRTLAEGVPSRFSGSGSGTQFSLKINSLQPEDFGSYYCQHHYGTPFTFGSGTKLEIKR
notes: Chimeric MAb2 with K52R in CDR2-L
B2: chMAb4 (antibody, human IgG1, kappa, V domains shown)
VH: EVQLVESGGGLVKPGGSLKLSCAASGFTFSSYDMSWVRQTPEKRLEWVAFISSYGGRTYYADTVKGRFTISRDNAKNTLYLQMSSLKSEDTAMFYCAAHYFGTSGPFAYWGQGTLVTVSA
VL: B1 VL with F30Y, L33F, T51A, R52K, T53I, S85T, T94I, I106L
notes: Chimeric, human IgG1 / Ckappa
B3: MAb1-SPDB-DM4 (other)
VH: EVMLVESGGGLVKPGGSLKLSCAASGFTFSSYAMSWVRQTPEKRLEWVATISSGGSYIYYLDSVKGRFTISRDNAKNTLYLQMSSLRSEDTAMYYCARPAYYGNPAMDYWGQGTSVTVSS
VL: DILMTQSQKFMSTSVGDRVSVTCKASQNVGTNVAWYQQKPGQSPKPLIYSASYRYSGVPDRFTGSGSGTDFTLTISNVQSEDLAEYFCQQYNSYPLYTFGGGTKLEIK
modifications: maytansinoid DM4 conjugated through SPDB linker; attachment residues not stated
B4: chMAb1 (antibody, human IgG1, kappa, V domains shown)
VH: B3 VH
VL: DILMTQSQKFMSTSVGDRVSVTCKASQNVGTNVAWYQQKPGQSPKPLIYSASYRYSGVPDRFTGSGSGTDFTLTISNVQSEDLAEYFCQQYNSYPLYTFGGGTKLEIKR
notes: Chimeric, human IgG1 / Ckappa
B5: MAb3-SPDB-DM4 (other)
VH: EVKLVESGGGLVKPGGSLTLPCAASGFTFSRYAMSWVRQTPEKRLEWVASISSGGDTYYPDSVKGRFTVSRDNARNILFLQMSSLRSEDTGMYYCARVNYYDSSFLDWWGQGTTLTVSS
VL: B3 VL with L3V, K9R, S14L, V15E, P46A, S93N
modifications: maytansinoid DM4 conjugated through SPDB linker; attachment residues not stated
B6: MAb5-SPDB-DM4 (other)
VH: ELQLVESGGVLVKPGGSLKLSCAASGFAFSSYDMSWVRQTPEKRLEWVTYINSGGGITYYPDTVKGRFTISRDNARNTLYLQMSSLKSEDTAIYYCTAHYFGSSGPFAYWGQGTLVTVSA
VL: DIQMTQSPASLSASVGETVTITCRASENIYSYLAWYQQKQGKSPQLLVYNAKTLTEGVPSRFSGSGSGTQFSLKINSLQPEDFGSYYCQHHYGTPFTFGSGTKLEIK
modifications: maytansinoid DM4 conjugated through SPDB linker; attachment residues not stated
B7: MAb2-SPDB-DM4 (other)
VH: B1 VH
VL: B6 VL with Y30F, A51T, T55A
modifications: maytansinoid DM4 conjugated through SPDB linker; attachment residues not stated
B8: chMAb5 (antibody, human IgG1, kappa, V domains shown)
VH: B6 VH
VL: B1 VL with F30Y, T51A, R52K, A55T
notes: Chimeric, human IgG1 / Ckappa
B9: MAb4-SPDB-DM4 (other)
VH: B2 VH
VL: B6 VL with L33F, T53I, T55A, S85T, T94I, I106L
modifications: maytansinoid DM4 conjugated through SPDB linker; attachment residues not stated
B10: antibody MAb2 (antibody, mouse IgG1, V domains shown)
VH: B1 VH
VL: B6 VL with Y30F, A51T, T55A
notes: Murine IgG1, kappa; Rows are tied to the label as printed

Key:
[1] = molecular target: T1, hCEACAM5, human CEACAM5 ECD (35-685) (human, UniProt P06731 35-685); assay: ELISA, chimeric mAb
T1 construct: produced in HEK293; also called human CEACAM5 protein; human CEACAM5 extracellular domain
T1 sequence: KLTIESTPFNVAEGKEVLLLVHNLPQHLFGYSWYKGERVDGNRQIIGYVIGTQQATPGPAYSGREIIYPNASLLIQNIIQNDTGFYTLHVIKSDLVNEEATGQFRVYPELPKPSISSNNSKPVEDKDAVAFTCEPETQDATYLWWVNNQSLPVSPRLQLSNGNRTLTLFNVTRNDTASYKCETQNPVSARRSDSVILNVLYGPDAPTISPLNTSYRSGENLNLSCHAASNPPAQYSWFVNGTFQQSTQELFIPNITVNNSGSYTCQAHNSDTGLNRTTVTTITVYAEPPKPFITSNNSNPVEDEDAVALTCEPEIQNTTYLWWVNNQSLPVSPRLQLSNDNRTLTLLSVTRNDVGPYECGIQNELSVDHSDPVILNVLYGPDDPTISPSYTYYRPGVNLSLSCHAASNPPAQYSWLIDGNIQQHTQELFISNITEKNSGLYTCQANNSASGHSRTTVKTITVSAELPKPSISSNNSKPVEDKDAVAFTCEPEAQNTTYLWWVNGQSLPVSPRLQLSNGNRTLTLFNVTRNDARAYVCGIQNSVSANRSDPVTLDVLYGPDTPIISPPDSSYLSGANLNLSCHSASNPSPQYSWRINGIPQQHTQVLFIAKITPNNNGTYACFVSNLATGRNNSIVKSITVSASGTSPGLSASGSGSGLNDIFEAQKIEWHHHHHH

[2] = molecular target: T2, cCEACAM5, M. fascicularis CEACAM5 ECD (35-688) (Macaca fascicularis); assay: ELISA, chimeric mAb
T2 construct: ECD followed by a 24 amino acid extension containing a His-Tag; also called cynomolgus CEACAM5; monkey CEACAM5
T2 chain: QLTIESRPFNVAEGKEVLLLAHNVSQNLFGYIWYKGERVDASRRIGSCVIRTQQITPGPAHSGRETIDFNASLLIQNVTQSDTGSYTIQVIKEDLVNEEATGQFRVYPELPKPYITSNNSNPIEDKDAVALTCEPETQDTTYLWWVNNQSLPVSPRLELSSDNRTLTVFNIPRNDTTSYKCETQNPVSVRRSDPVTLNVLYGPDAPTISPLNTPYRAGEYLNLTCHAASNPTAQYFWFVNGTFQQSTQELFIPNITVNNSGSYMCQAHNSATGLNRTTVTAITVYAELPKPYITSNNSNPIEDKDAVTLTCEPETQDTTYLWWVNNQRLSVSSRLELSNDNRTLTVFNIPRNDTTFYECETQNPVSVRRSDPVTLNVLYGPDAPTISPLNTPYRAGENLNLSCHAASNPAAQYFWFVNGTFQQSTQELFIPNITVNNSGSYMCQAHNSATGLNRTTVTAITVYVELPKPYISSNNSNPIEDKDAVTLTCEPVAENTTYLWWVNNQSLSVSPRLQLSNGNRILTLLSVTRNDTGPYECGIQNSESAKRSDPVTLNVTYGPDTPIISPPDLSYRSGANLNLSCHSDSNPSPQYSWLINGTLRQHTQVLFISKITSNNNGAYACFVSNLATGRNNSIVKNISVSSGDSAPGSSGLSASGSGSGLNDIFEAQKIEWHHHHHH

[3] = molecular target: T3, human CEACAM5 expressed on the surface of tumor cells (human, UniProt P06731 35-685); assay: cell-based or functional assay
T3 sequence: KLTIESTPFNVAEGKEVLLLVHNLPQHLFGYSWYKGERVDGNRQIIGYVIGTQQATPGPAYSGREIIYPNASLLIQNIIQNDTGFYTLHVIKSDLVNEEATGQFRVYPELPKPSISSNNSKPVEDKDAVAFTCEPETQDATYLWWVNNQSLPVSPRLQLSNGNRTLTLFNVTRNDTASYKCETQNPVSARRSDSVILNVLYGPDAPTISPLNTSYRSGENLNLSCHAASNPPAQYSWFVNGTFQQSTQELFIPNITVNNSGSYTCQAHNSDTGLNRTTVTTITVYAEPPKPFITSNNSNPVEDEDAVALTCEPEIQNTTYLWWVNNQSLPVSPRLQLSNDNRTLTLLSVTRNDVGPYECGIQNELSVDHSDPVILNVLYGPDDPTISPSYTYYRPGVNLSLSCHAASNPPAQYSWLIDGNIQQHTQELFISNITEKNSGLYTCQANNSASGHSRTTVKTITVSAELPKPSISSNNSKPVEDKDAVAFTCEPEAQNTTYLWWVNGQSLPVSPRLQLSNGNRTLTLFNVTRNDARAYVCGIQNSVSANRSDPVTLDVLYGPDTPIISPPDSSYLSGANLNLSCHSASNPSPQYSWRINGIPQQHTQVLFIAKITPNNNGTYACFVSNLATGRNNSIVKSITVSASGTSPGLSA

[4] = molecular target: T1, hCEACAM5, human CEACAM5 ECD (35-685); assay: ELISA, coated CEACAM5
Procedure: (§1) All CEACAM5-specific mAbs were assessed for their ability to bind human and primate CEACAM5 protein by ELISA. Plates were coated with human or primate CEACAM5 protein, anti-hCEACAM5 mAbs were added to the plate and detected with rabbit anti-mouse IgG conjugated with horseradish peroxidase (Sigma; # A9044). The antibody binding was visualized by adding TMB-H2O2 buffer and read at a wavelength of 450 nm.

[5] = molecular target: T2, cCEACAM5, M. fascicularis CEACAM5 ECD …; assay: ELISA, coated CEACAM5
Procedure: as §1

[6] = molecular target: T3, human CEACAM5 expressed on the surface …; assay: apparent KD, flow cytometry on CR-IGR-034P primary colon tumor cells
Procedure: (§2) Advanced human primary colon tumor CR-IGR-034P (Julien et al., Clin Cancer Res Oct. 1, 2012 18:5314-5328) was obtained from Patient-derived xenograft in mice. Tumor CR-IGR-034P was enzymatically dissociated using collagenase Type IV (Invitrogen; #17104-019) and deoxyribonuclease I (Invitrogen; #18047-019) for 1 h at […], Cell viability was estimated by Viacount application using Guava® easyCyte™ 8HT Flow Cytometry System. […] 100 μL/well of goat anti-mouse IgG conjugated with Alexa647 (Invitrogen; # A2135) or goat anti-human IgG conjugated with Alexa488 (Invitrogen; # A11013) was added for 45 min at 4° C. and washed three times with PBS 1% BSA. The antibody binding was evaluated after centrifugation and resuspension of cells by adding 200 pliwell PBS 1% BSA and read using Guava® easyCyte™ 8HT Flow Cytometry System. Apparent KD and EC50 values were estimated using BIOST@T-BINDING and BIOST@T-SPEED softwares, respectively.

[7] = molecular target: T3, human CEACAM5 expressed on the surface …; assay: flow cytometry on CR-IGR-034P primary colon tumor cells
Procedure: as §2

Binder	EC50 [1]	EC50 [2]	Cytotoxic activity IC50 (nM) on MKN45 cells [3]	other results
B1	0.11 nM	0.15 nM	–	–
B2	0.14 nM	0.12 nM	–	–
B3	–	–	0.89 nM	–
B4	0.51 nM	1.57 nM	–	–
B5	–	–	0.53 nM	–
B6	–	–	0.24 nM	–
B7	–	–	0.14 nM	–
B8	0.18 nM	0.13 nM	–	–
B9	–	–	0.96 nM	–
B10	–	–	–	EC50 [4]: 0.14 nM; EC50 [5]: 0.07 nM; Ratio c/h (EC50 on cCEACAM5 against EC50 on hCEACAM5) [5]: 0.5; Kd [6]: 0.38 nM; EC50 [7]: 0.53 nM

From patent US20220340682A1 (Sanofi, published 2022)
